Consider eleven molecules from PMC4456160 (Nature structural & molecular biology, 2015).

First the molecules themselves.
T1: full length ectodomain of human RGMC (eRGMC) (human, UniProt Q6ZVN8 36-400)
T1 sequence: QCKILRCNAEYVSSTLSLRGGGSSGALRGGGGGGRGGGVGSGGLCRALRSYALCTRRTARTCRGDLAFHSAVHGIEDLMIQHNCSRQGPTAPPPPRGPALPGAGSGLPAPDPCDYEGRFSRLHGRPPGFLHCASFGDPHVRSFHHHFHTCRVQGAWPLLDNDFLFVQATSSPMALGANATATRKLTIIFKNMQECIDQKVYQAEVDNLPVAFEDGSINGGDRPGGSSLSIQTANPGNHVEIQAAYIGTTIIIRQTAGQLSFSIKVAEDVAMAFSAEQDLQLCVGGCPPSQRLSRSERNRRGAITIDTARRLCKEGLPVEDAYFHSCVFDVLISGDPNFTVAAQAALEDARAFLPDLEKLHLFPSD

B1: secreted ectodomain of human BMPR1A (eBMPR1A) (receptor)
chain: TLAPEDTLPFLKCYCSGHCPDDAINNTCITNGHCFAIIEEDDQGETTLASGCMKYEGSDFQCKDSPKAQLRRTIECCRTNLCNQYLQPTLPPV
B2: full length ectodomain of human RGMB (eRGMB) (domain or fragment)
chain: QCRIQKCTTDFVSLTSHLNSAVDGFDSEFCKALRAYAGCTQRTSKACRGNLVYHSAVLGISDLMSQRNCSKDGPTSSTNPEVTHDPCNYHSHAGAREHRRGDQNPPSYLFCGLFGDPHLRTFKDNFQTCKVEGAWPLIDNNYLSVQVTNVPVVPGSSATATNKITIIFKAHHECTDQKVYQAVTDDLPAAFVDGTTSGGDSDAKSLRIVERESGHYVEMHARYIGTTVFVRQVGRYLTLAIRMPEDLAMSYEESQDLQLCVNGCPLSERIDDGQGQVSAILGHSLPRTSLVQAWPGYTLETANTQCHEKMPVKDIYFQSCVFDLLTTGDANFTAAAHSALEDVEALHPRKERWHIFPSSG
B3: mouse NEO1 FN5-FN6 with juxtamembrane stretch (NEO1FN56M) (domain or fragment)
chain: TPMMPPVGVQASILSHDTIRITWADNSLPKHQKITDSRYYTVRWKTNIPANTKYKNANATTLSYLVTGLKPNTLYEFSVMVTKGRRSSTWSMTAHGATFELVPTSPPKDVTVVSKEGKPRTIIVNWQPPSEANGKITGYIIYYSTDVNAEIHDWVIEPVVGNRLTHQIQELTLDTPYYFKIQARNSKGMGPMSEAVQFRTPKADSSDKMPNDQALGSAGKGSRLPDLGSDYKPPMSGSNSPHGSPTSPLDSN
B4: N-terminal domain of human RGMC (RGMCND) (domain or fragment)
chain: QCKILRCNAEYVSSTLSLRGGGSSGALRGGGGGGRGGGVGSGGLCRALRSYALCTRRTARTCRGDLAFHSAVHGIEDLMIQHNCSRQGPTAPPPPRGPALPGAGSGLPAPDP
B5: RGMCND-L101P (domain or fragment)
chain: B4 chain with L66P
B6: RGMCND-G99R (domain or fragment)
chain: B4 chain with G64R
B7: mouse NEO1 fifth and sixth fibronectin type III domains (NEO1FN56) (domain or fragment)
chain: TPMMPPVGVQASILSHDTIRITWADNSLPKHQKITDSRYYTVRWKTNIPANTKYKNANATTLSYLVTGLKPNTLYEFSVMVTKGRRSSTWSMTAHGATFELVPTSPPKDVTVVSKEGKPRTIIVNWQPPSEANGKITGYIIYYSTDVNAEIHDWVIEPVVGNRLTHQIQELTLDTPYYFKIQARNSKGMGPMSEAVQFRTP
B8: N-terminal domain of human RGMA (RGMAND) (domain or fragment)
chain: TSPCKILKCNSEFWSATSGSHAPASDDTPEFCAALRSYALCTRRTARTCRGDLAYHSAVHGIEDLMSQHNCSKDGPTSQPRLRTLPPAGDSQERS
B9: human BMP2 (Bone Morphogenetic Protein 2), disulfide-linked dimer (ligand)
chain: QAKHKQRKRLKSSCKRHPLYVDFSDVGWNDWIVAPPGYHAFYCHGECPFPLADHLNSTNHAIVQTLVNSVNSKIPKACCVPTELSAISMLYLDENEKVVLKNYQDMVVEGCGCR
B10: N-terminal domain of human RGMB (RGMBND) (domain or fragment)
chain: QCRIQKCTTDFVSLTSHLNSAVDGFDSEFCKALRAYAGCTQRTSKACRGNLVYHSAVLGISDLMSQRNCSKDGPTSSTNPEVTH

Numbering of substitutions follows the chain as printed. Numbers in names are those of the source. Like-named read-outs stand apart in the source and are kept apart here.

Data set [1] addresses human BMP2 (Bone Morphogenetic Protein 2), disulfide-linked dimer (human) (UniProt P12643). In words: SPR. For orientation: In SPR one partner is held on a chip, and binding of the other changes the refractive index at the surface.
Data set [2] has as its target B9. In words: SEC-MALS. (In gel filtration, larger molecules generally elute earlier.)
The target in data set [3] is B9. The data set can be described thus: SPR.
Data set [4] has as its target B9. The data set can be described thus: crystal structure.
The target of data set [5] is B9. In words: SAXS.
Data set [6] addresses B2. In words: SAXS.
In data set [7] the target is B9. The data set can be described thus: crystal structure. This is another data set of the same source.
For data set [8], the target named is B9. In words: SPR. The source holds these as a separate data set.
In data set [9] the target is B2. The data set can be described thus: crystal structure.
The data set “crystal structure” concerns the molecule itself. The data set can be described thus: crystal structure.
For data set [10], the target named is T1, full length ectodomain of human RGMC …. In words: SPR.
In data set [11] the target is B2. The data set can be described thus: SPR.

For the molecule “RGMC H104A mutant (from UniProt Q6ZVN8 36-147) (domain or fragment)”, the Kd (usually the concentration at which binding is half-saturated) in [1] amounted to 280 nM.

Turning to B1, the stoichiometry N (commonly the number of molecules, sites or subunits per partner or assembly) in data set [2] was 2 eBMPR1A per disulfide-linked BMP2 dimer (printed 2:2). Further, the Kd in data set [3] was determined as 280 nM.

Take B2: the “stoichiometry N” value in [4] is 2 RGMB per BMP2 dimer; in data set [5] it was 2 eRGMB per BMP2 dimer (printed 2:2:2).

Take B3: the “stoichiometry N” value in data set [6] is 1 NEO1 per eRGMB (printed 2:2:2).

Turning to B4, the “stoichiometry N” value in [7] was determined as 2 RGMC per BMP2 dimer. Further, in data set [8], binding was characterised by a dissociation constant (Kd) of 124 nM.

For the molecule B5, in data set [8], the dissociation constant (Kd) worked out at 1500 nM.

Take B6: in data set [8], binding was put at a Kd of 910 nM.

Take B7: in [9], the binding result was “binds”.

B8: the binding result in data set [7] was “binds”.

As to B9, in the data set “crystal structure”, the “stoichiometry N” value is 2. Further, the binding result in data set [10] and in data set [11] was “binds” throughout.

Consider B10, for which the “stoichiometry N” value in [2] is 2 RGMBND per disulfide-linked BMP2 dimer (printed 2:2). In data set [8], binding was put at a Kd of 88 nM.
